Measured values reported in US20120258145A1.

Target: stomach proteases of BALB/c mice
Experiment: cell-based or functional assay

non-lipidated Omp19S polypeptide of Brucella abortus, recombinant from E. coli, with a histidine tai (from UniProt P0A3P1 22-177)
inhibitory effect on the action of stomach proteases: > 30%
